Data on 1 molecule can be found in patent publication US20210340270A1 (Amgen, published 2021).

The target of test [1] is murine Jagged-1 stably expressed on 293T cells (mouse, UniProt Q9QXX0 34-1218). Nature of the test: cell-based or functional assay.
Test [2] has as its target human Jagged-1 expressed on transfected 293 / 293T cells (human, UniProt P78504 34-1218). Briefly: cell-based or functional assay.
The target in test [3] is human and rat Jagged-1 (recombinant purified Notch ligands in the ELISA). Briefly: direct binding ELISA on recombinant purified Notch ligands.
For test [4], the target named is T1, Recombinant Human DLL4 His tag (R&D Systems Cat #: 1506-D4-050) (human, UniProt Q9NR61 27-524).
T1 construct: Bought construct; also called human Deltalike 4; not shown: His tag
Briefly: ELISA, 1 ug/ml ligand coated on the plate, 15D11.1 titrated, absorbance 450 nm. On the procedure:
(§1) 15D11.1 was tested for binding to recombinant purified Notch ligands; human Jagged1 Fc (Recombinant Human Jagged 1 Fc chimera—R&D Systems Cat #: 1277-M-050), human Jagged1 His (Human JAG1/Jagged1 His Tag Sino Biological Cat #: 11648-H08H), rat Jagged1 Fc (Recombinant Rat Jagged 1 Fc chimera—R&D Systems—Cat #: 599-JG-050), human Jagged2 (Recombinant Human Jagged 2 Fc chimera—R&D Systems Cat #: 1726-JG-050), murine Jagged2 (Recombinant Mouse Jagged 2 Fc chimera—R&D Systems Cat #: 4748-JG-050), murine Delta-like 1 (Recombinant Mouse DLL1 His tag—Sino Biological Cat #: 50522-M08H-50), human Deltalike 4 (Recombinant Human DLL4 His tag—R&D Systems—Cat #: 1506-D4-050) and murine Deltalike 4 (Recombinant Mouse DLL4 His tag—R&D Systems—Cat #: 1389-D4-050) using a standard enzyme-linked immunosorbent assay (ELISA). 1 ug/ml of Notch ligand protein (as indicated) in PBS, pH7.4, was coated onto ELISA plates (Nunc Maxisorp) at 4° C. overnight. Plates were blocked with Casein blocker in PBS (Pierce) for one hour at room temperature. Serial 2-fold dilutions of 15D11.1
(§2) in PBST buffer (PBT buffer (PBS+0.05% (v/v) Tween 20) with 0.5% (w/v) BSA) were added to the plates and incubated for one hour at room temperature. The plates were then washed with PBST and bound antibodies were detected with peroxidase-conjugated goat anti-human Fab specific IgG (Sigma). TMB substrate (3,3′,5,5′-tetramethylbenzidine) was used and absorbance at 450 nm was read using a standard ELISA plate reader. Absorbance was plotted against concentrations of 15D11.1 in FIGS. 8A and 8B.
(ELISA stands for enzyme-linked immunosorbent assay.)

The target in test [5] is T2, Recombinant Mouse DLL4 His tag (R&D Systems Cat #: 1389-D4-050) (mouse, UniProt Q9JI71 28-525).
T2 construct: Bought construct; also called murine Deltalike 4; not shown: His tag
Described as above. On the procedure:
as §1, §2

Test [6] has as its target T3, Recombinant Human Jagged 2 Fc chimera (R&D Systems Cat #: 1726-JG-050) (human, UniProt Q9Y219 27-1080).
T3 construct: Bought construct; not shown: Fc part and any linker of the bought chimera not described
The test is described as above. On the procedure: as §1, §2

The target of test [7] is T4, Recombinant Mouse Jagged 2 Fc chimera (R&D Systems Cat #: 4748-JG-050) (mouse, UniProt Q9QYE5 27-1082).
T4 construct: Bought construct; also called murine Jagged2; not shown: Fc part and any linker of the bought chimera not described
Described as above. The protocol:
as §1, §2

Test [8] deals with T5, Recombinant Mouse DLL1 His tag (Sino Biological Cat #: 50522-M08H-50) (mouse, UniProt Q61483 18-540).
T5 construct: Bought construct; also called murine Delta-like 1; not shown: His tag
The description is as above. On the procedure: as §1, §2

For test [9], the target named is T6, recombinant human Jagged1 extracellular domain (Met 1-Ser 1046), fused with a polyhistidine tag at the … (human, UniProt P78504 34-1046).
T6 construct: Bought protein; also called hJagged1; soluble recombinant hJagged1; not shown: C-terminal polyhistidine tag
Briefly: Octet Red96 BLI; mAb captured on AHC anti-HuFc biosensors, soluble hJagged1 as analyte; mean of 3 experiments. The protocol: (§3) The affinity of the soluble recombinant hJagged1 was determined in Octet platform (Octet Red96) under the manufactures recommended kinetic measurement settings. Briefly, hJagged1 was diluted 1 to 3 from 150 nM to 0.5 nM in Octet buffer (10 mM Tris base, 150 mM NaCl, 1 mM CaCl2, 0.1 mg/ml BSA, 0.1% Triton X100) and 60 ul of this serial diluted samples were taken in 384 well tilted bottom (TW384) black polypropylene microplate (Forte Bio, Cat #18-0019) (sample plate). 3 ug/ml of anti-hJagged1 mAb 15D11.1 present in 60 ul in sample plate was used and captured on AHC—anti-HuFc (Kinetic) biosensors (cat #18-5060). A sample with buffer alone is used as a control.
A general note: Biolayer interferometry detects binding as a change in optical thickness at a sensor tip.

Test [10] concerns the target T7, Recombinant Human Jagged 1 Fc chimera (R&D Systems Cat #: 1277-M-050) (human, UniProt P78504 32-1046).
T7 construct: also called hJAG1 Fc; not shown: Fc part and any linker of the bought chimera not described
Briefly: direct binding ELISA; 1 ug/ml ligand coated, antibody titrated, anti-human Fab-HRP detection (printed as IC50). The protocol: as §1, §2

Test [11] deals with T8, Human JAG1/Jagged1 His Tag (Sino Biological Cat #: 11648-H08H) (human, UniProt P78504 34-1046).
T8 construct: also called human Jagged1 His; hJAG1 His; not shown: His tag
Described as above. On the procedure: as §1, §2

The target in test [12] is T9, Recombinant Rat Jagged 1 Fc chimera (R&D Systems Cat #: 599-JG-050) (rat, UniProt Q63722 32-1046).
T9 construct: Bought construct; also called rJAG1; not shown: Fc part and any linker of the bought chimera not described
The test is described as above. The protocol: as §1, §2

The target of test [13] is T6, recombinant human Jagged1 extracellular …. Nature of the test: Octet Red96 BLI; mAb captured on AHC anti-HuFc biosensors, soluble hJagged1 as analyte; mean of 3 experiments (same KD as r8c2, in nM). On the procedure: as §3
The target in test [14] is T7, Recombinant Human Jagged 1 Fc chimera …. Briefly: ELISA, 1 ug/ml ligand coated on the plate, 15D11.1 titrated, absorbance 450 nm; single experiment shown (the text prints only a mean of n = 3). On the procedure:
as §1, with “1 ug/ml of Notch ligand protein (as indicated) in PBS, pH7.4, was coated onto ELISA plates (Nunc Maxisorp) at 4° C. overnight. Plates were blocked with Casein blocker in PBS (Pierce) for one hour at room temperature. Serial 2-fold dilutions of 15D11.1” left out
as §2

Chain of human Jagged-1 expressed on transfected 293 / 293T cells (P78504 34-1218 P227R/N498D limits assumed): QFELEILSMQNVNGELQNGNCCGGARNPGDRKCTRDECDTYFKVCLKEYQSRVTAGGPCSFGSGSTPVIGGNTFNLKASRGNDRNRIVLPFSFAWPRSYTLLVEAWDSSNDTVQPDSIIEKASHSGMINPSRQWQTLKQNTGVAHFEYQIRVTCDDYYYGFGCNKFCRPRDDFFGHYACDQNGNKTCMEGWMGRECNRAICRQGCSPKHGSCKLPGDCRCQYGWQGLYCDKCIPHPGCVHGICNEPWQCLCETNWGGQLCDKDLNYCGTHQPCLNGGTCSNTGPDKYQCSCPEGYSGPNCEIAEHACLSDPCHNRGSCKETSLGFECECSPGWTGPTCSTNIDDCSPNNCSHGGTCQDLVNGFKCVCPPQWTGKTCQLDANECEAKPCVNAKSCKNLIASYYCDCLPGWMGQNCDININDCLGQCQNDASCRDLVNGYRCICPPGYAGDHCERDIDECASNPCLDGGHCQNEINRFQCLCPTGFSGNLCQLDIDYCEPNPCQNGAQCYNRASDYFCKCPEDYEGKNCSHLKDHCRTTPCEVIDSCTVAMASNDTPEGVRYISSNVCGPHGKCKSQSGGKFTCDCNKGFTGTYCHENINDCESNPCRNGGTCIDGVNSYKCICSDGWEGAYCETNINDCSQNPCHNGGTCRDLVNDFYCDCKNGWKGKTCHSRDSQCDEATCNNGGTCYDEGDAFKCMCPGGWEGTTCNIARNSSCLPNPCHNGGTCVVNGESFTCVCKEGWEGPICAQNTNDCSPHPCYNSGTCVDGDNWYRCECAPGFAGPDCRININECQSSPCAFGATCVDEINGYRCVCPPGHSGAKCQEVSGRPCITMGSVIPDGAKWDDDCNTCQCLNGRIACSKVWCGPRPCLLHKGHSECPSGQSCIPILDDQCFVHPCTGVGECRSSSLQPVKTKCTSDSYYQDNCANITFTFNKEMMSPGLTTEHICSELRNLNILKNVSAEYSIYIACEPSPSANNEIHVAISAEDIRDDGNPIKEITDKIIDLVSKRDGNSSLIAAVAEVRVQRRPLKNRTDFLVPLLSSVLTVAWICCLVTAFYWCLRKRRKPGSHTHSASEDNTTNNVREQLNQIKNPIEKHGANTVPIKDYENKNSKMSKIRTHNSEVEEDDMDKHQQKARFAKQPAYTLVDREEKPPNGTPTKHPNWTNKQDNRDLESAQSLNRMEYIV
Chain of murine Jagged-1 stably expressed on 293T cells (Q9QXX0 34-1218): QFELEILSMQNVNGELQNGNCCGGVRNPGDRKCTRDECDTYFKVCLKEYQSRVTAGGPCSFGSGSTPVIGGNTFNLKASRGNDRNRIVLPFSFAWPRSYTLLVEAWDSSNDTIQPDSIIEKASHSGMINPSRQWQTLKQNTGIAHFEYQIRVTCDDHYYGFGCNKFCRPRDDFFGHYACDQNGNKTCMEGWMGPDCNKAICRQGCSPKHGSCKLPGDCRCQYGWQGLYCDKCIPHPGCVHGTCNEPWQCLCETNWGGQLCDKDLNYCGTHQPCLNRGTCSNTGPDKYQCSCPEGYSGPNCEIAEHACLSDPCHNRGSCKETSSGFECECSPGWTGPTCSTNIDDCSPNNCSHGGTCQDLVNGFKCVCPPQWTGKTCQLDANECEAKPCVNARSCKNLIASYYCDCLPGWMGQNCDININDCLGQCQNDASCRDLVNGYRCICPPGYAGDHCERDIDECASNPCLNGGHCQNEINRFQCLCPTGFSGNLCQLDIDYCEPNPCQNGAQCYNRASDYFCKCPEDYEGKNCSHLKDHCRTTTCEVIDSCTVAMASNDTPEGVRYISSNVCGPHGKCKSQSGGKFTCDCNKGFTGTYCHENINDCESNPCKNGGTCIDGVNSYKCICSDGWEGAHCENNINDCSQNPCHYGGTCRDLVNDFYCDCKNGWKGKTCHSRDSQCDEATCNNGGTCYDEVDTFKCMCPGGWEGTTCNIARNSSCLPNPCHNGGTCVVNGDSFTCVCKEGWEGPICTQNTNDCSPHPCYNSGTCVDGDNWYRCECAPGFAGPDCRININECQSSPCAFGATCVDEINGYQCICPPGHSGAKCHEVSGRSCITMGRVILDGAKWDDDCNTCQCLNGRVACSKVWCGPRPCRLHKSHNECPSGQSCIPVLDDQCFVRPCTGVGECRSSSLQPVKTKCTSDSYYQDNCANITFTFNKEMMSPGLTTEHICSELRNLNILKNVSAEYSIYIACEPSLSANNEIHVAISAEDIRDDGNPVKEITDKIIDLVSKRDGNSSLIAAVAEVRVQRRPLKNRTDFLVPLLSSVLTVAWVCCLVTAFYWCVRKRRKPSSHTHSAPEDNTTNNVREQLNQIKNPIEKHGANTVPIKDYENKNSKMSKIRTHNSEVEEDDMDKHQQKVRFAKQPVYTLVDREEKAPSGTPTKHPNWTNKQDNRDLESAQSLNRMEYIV
T1 sequence (Q9NR61 27-524 limits assumed): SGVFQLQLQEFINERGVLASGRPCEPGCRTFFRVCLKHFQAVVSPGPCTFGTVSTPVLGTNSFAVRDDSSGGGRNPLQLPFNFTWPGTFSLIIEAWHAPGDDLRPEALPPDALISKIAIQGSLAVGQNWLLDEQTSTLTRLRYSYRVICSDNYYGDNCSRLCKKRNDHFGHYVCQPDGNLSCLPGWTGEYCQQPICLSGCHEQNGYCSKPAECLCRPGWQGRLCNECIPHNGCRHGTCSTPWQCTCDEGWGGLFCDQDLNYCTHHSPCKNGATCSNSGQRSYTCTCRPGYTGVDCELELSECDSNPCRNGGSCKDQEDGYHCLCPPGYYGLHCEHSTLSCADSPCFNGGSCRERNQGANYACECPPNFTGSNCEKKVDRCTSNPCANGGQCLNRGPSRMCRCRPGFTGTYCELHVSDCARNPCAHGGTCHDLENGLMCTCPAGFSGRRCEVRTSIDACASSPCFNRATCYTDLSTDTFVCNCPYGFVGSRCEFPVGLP
T3 sequence (Q9Y219 27-1080, change not shown): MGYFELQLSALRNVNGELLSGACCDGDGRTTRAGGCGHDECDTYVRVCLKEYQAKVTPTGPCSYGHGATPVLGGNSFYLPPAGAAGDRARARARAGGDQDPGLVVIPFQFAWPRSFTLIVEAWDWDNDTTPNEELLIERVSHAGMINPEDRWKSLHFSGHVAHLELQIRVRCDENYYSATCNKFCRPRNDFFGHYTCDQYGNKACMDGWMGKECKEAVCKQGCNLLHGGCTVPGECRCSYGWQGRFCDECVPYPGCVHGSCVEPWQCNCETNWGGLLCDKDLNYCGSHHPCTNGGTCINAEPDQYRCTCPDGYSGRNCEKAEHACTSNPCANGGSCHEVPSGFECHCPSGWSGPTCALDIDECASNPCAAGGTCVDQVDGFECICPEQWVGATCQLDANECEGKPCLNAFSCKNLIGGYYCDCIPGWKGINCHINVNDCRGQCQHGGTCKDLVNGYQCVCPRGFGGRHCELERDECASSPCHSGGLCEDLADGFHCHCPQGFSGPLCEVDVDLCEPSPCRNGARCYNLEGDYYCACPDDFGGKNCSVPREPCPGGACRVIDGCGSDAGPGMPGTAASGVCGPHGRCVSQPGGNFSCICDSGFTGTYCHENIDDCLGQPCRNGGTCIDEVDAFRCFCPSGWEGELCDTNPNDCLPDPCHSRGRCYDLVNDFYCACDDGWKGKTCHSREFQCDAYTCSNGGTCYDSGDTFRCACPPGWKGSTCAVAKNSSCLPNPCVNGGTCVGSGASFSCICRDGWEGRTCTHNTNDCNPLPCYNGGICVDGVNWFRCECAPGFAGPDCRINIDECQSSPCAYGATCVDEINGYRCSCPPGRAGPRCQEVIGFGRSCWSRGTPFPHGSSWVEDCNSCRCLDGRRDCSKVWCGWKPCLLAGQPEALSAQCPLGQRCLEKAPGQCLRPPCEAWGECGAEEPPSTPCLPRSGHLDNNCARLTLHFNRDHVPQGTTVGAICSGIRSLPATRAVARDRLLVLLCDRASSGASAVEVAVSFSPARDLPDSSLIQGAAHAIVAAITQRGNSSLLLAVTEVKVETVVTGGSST
T4 sequence (Q9QYE5 27-1082, change not shown): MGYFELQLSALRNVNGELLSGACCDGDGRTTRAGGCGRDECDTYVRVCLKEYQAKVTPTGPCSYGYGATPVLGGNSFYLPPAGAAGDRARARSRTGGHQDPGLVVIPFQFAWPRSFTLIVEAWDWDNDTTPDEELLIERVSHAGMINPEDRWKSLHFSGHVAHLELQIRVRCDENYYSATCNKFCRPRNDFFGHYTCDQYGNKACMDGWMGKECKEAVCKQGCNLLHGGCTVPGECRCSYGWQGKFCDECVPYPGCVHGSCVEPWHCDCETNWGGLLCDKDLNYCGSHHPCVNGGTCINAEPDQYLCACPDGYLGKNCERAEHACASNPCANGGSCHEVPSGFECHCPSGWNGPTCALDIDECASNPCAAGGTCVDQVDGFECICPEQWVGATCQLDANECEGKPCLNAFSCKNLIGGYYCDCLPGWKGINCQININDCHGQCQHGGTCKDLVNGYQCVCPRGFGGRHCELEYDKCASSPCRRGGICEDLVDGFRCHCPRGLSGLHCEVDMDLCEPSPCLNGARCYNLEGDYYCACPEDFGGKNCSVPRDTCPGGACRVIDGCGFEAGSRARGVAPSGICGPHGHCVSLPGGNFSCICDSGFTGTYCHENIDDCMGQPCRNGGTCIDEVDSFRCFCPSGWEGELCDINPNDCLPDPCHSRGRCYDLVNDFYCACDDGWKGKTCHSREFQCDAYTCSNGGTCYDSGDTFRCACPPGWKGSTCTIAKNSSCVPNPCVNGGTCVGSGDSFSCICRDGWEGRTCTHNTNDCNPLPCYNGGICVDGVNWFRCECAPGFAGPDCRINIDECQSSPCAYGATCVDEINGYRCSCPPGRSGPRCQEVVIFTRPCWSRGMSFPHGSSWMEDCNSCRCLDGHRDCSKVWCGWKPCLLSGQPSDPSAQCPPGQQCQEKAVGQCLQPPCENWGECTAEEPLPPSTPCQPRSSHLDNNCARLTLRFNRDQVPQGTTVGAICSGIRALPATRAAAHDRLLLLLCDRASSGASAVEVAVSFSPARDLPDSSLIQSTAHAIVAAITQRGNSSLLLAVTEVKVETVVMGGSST

B1: anti-hJagged1 mAb 15D11.1 (antibody, V domains shown)
VH: QVTLKESGPVLVKPTETLTLTCTVSGFSLSNAEMGVSWIRQPPGKALEWLAHLFSNDEKSYSTSLKSRLTISKDTSKSQVVLTMTDLDPVDTATYYCARSFNWNYDFDYWGQGTLVTVSS
VL: QSALTQPASVSGSPGQSITISCTGTSSAVGGHNFVSWYQQYPGKAPKLMIYEVSNRPSGVSTRFSGSKSGNTASLTISGLQAEDEADYYCSSYTSSSTWVFGGGTRLTVL
notes: Fully human monoclonal antibody from XenoMouse (XMG2-KL / XMG4-KL) hybridomas; also called iPS:480499; anti-Jag-1 15D11.1
B1: the “IC50, murine Jagged-1 induced murine Notch1 activation co-culture assay (7xCSL firefly luciferase reporter in 293T/murine Notch1 cells)” value in test [1] stood at 7720 pM. Also, the “avg IC50, murine Jagged-1 induced murine Notch1 activation co-culture assay (7xCSL firefly luciferase reporter in 293T/murine Notch1 cells)” value in test [1] worked out at 9000 pM. Besides, the “IC50, human Jagged-1 induced human Notch2 activation co-culture assay (12xCSL firefly luciferase reporter in SK-MEL-28 cells)” value in test [2] was 1690 pM. Besides, the “avg IC50, human Jagged-1 induced human Notch2 activation co-culture assay (12xCSL firefly luciferase reporter in SK-MEL-28 cells)” value in [2] came out at 2310 pM. Also, the half-maximal inhibitory concentration (IC50) in test [3] was 300 to 900 pM; in test [10], 800 pM; in test [11] it was 390 pM; in test [12] it was 510 pM. Also, the binding result in test [4], in [5], in test [6], in test [7] and in test [8] was “no binding (tested: about log 1.8 nM (about 60 nM))” in each case. The off-rate constant (koff) in [9] came to 0.000189 s⁻¹. The association rate constant (kon) in test [9] was determined as 331000 M⁻¹ s⁻¹. Also, the dissociation constant (Kd) in test [13] was 610 pM. The concentration for a half-maximal effect (EC50 (read off the curve)) in test [14] is approximately 400 pM.

One may read the IC50 as the concentration needed to halve the response being measured. Usually koff stands for the first-order rate constant of dissociation. Usually kon stands for a measure of how fast the partners come together. In general, Kd refers to the equilibrium constant for the complex coming apart. For orientation: EC50 (read off the curve) means the midpoint of the concentration-response curve.
